Tests used:
Experiment in all cases: SPR
FIKK13_4_S7A_Y10A = molecular target: FIKK13_4_S7A_Y10A
FIKK13_4_Y10A = molecular target: FIKK13_4_Y10A
FIKK13_4_S7A = molecular target: FIKK13_4_S7A
FIKK13_1 = molecular target: FIKK13_1
FIKK13_6 = molecular target: FIKK13_6

B1: Bio-His-FIKK13 (enzyme)
chain: MKKKENTQKLLNFVYYKIYLTFIVGLLYIFLLNILINHGGSKNDVRFTNIRCVRIFSENIKNINEISKKIYLYNIKNEKDDIICRDSLDNINEINNKINYTSVKGEDIIILKEGKYKNGCSDINFLDRKDVNKNDDQSFRNYHKTNNNKDENVNMKSYVYNWELGQKSLIKMLDYADNFYFNGVKYSDWKLTSMRRFNLNNNVLKDHKTYKSIINSKKGNDMKKVKLFIKKIPIDIWVEQFNLMKKYEGEYLIDKENYVMEAVSLAFLNEYYPGITPKFYKILYESDKNNMNEKNCKKYKFQDLNELNDILTKKLENNINGNIVLISEFFGENVFDYIKRKKNTLFVVSDISNEDKKKILYNSLNLLMRLHNAGLTHLDLSPDNMLISPKNYEMRLCDLSQSTPIYTNKLRHKEKLNSIKPFESFEPCIGKIEYIPPECWKIVWKYKMNNIKNPIEYLKNISNQEERKKYYYDVSCADKYMLGIFFIWMWNNGFIWKCSDPIQDKIFEIFMKSNMDLNKFIMTKSWPHELNNLINKLLHMEHRKTVKLSDLSRHPWWSSKN
**Q.** How did the Kd (FIKK13_4_S7A_Y10A) turn out when B1 was run?
**A.** > 10 µM

**Q.** What about the Kd (FIKK13_4_Y10A) of the same binder?
**A.** > 10 µM

**Q.** What about the Kd (FIKK13_4_S7A) of the same binder?
**A.** 3.4 µM

**Q.** And the Kd (FIKK13_1)?
**A.** > 10 µM

**Q.** And the Kd (FIKK13_6)?
**A.** > 10 µM

— article doi:10.1101/2024.02.22.581535 (2024)
